Measured values as given in PMC6660512.

What was measured:
[1] = target: Nogo-A Δ20 (Rattus norvegicus) (UniProt Q9JK11); conditions: cited from earlier work
[2] = target: His-tagged Nogo-A-Δ20; test: MST; Nanotemper Monolith NT.115, as described in ref. 29; SPARC and Nogo-A-Δ20 (Suppl. Figure 4m)

Chain of UniProt Q9JK11 (Q9JK11 544-725, stated change not applied): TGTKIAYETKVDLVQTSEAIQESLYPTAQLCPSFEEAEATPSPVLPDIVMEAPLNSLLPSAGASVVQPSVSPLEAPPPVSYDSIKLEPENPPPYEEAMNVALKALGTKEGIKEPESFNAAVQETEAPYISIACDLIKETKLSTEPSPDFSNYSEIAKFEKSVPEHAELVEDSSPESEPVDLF

## S1PR2 (from UniProt O95136)
[1]
  Kd: 0.28 µM

B1: SPARC (construct used for microscale thermophoresis not stated) (natural protein)
chain: APQQEALPDETEVVEETVAEVTEVSVGANPVQVEVGEFDDGAEETEEEVVAENPCQNHHCKHGKVCELDENNTPMCVCQDPTSCPAPIGEFEKVCSNDNKTFDSSCHFFATKCTLEGTKKGHKLHLDYIGPCKYIPPCLDSELTEFPLRMRDWLKNVLVTLYERDEDNNLLTEKQKLRVKKIHENEKRLEAGDHPVELLARDFEKNYNMYIFPVHWQFGQLDQHPIDGYLSHTELAPLRAPLIPMEHCTTRFFETCDLDNDKYIALDEWAGCFGIKQKDIDKDLVI
[2]
  Kd: 0.15 µM
